Here are results for three molecules from patent US20130149300A1 (ICON GENETICS, published 2013).

The target of assay [1] is T1, Recombinant human FcγRIIIA (human, UniProt P08637 17-208).
T1 construct: also called FcγRIIIA (CD16); CD16
The assay can be described thus: SPR (Biacore), receptor amine-coupled to CM5 chip, mAb flowed, 1:1 fit.

A further assay concerns the target T2, Recombinant human FcγRI (human, UniProt P12314 16-288).
T2 construct: also called FcγRI (CD64); CD64
Described as above.

A further assay concerns the target human C1q (human, UniProt P02745 23-245; P02746 28-253; P02747 29-245). The assay can be described thus: C1q binding ELISA, mAb coated at 2.5 µg/ml, human C1q added.

T1 sequence (P08637 17-208 limits assumed): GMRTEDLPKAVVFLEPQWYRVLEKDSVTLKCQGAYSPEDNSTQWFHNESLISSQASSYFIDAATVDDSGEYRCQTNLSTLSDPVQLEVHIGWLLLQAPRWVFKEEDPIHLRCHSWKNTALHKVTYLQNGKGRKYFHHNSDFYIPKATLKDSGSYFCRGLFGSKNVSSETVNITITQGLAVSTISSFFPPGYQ
human C1q, sequence (P02745 23-245 limits assumed, chain 1 of 3): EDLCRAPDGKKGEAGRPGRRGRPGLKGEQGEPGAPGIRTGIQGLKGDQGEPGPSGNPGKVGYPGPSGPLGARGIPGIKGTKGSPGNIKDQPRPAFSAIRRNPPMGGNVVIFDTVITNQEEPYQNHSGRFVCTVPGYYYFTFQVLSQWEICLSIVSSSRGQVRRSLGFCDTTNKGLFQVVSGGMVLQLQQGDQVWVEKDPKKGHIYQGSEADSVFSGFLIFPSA
human C1q, sequence (P02746 28-253 limits assumed, chain 2 of 3): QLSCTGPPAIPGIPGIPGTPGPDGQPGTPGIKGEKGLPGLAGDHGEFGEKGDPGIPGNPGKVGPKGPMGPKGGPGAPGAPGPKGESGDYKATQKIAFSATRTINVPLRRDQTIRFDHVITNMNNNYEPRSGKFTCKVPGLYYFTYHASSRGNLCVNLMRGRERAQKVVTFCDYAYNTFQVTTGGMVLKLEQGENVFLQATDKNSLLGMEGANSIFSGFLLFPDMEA
human C1q, sequence (P02747 29-245 limits assumed, chain 3 of 3): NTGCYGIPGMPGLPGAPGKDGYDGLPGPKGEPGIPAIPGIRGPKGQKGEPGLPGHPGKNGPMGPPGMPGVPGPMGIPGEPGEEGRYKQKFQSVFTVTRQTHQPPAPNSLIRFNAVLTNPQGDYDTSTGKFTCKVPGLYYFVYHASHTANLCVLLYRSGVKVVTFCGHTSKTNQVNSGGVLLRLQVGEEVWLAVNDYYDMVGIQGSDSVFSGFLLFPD
T2 sequence (P12314 16-288 limits assumed): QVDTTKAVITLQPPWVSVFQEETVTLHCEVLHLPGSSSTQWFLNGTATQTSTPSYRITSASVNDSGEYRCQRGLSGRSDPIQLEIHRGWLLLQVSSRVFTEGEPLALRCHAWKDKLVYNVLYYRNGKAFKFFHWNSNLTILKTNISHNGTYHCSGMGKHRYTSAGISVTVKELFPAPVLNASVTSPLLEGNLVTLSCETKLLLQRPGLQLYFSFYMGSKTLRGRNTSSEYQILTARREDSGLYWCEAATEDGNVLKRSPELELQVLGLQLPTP

B1: Anti-Ebola virus produced in -XF plants (antibody)
heavy: not shown
light: QLVLTQSSSASASLGASVKLTCTLSRQHSTYTIEWYQQQPAKPPRYVMELKKDGSHSTGDGIPDRFSGSSSGADRYLTISSLQSEDEADYYCGVGDTIKEQFVYVFGTGTKVTVLGQPKAAPSVTLFPPSSEELQANKATLVCLISDFYPGAVTVAWKADSSPVKAGVETTTPSKQSNNKYAASSYLSLTPEQWKSHRSYSCQVTHEGSTVEKTVAPTECS
In the case of B1, the Kd worked out at 25 nM in assay [1] and 16 nM with Recombinant human FcγRI. This molecule gave an Absorbance with human C1q of 0.49 absorbance at 450 nm.

B2: Anti-Ebola virus produced in wild type plants (antibody)
heavy: not shown
light: B1 light
With B2, the Kd in assay [1] was 72 nM; with Recombinant human FcγRI, 42 nM. The molecule further returned an Absorbance with human C1q of 0.92 absorbance at 450 nm.

B3: Anti-Ebola virus produced in -XF +gal plants (antibody)
heavy: not shown
light: B1 light
As for B3, the Kd in assay [1] turned out to be 26 nM; with Recombinant human FcγRI, 15 nM. The Absorbance in the assay with human C1q came to 0.96 absorbance at 450 nm.

One may read the Kd as the concentration at which binding is half-saturated.
